Data taken from patent US20090263370A1, “METHODS FOR TREATING TACHYKININ-MEDIATED DISEASES WITH CHOLINESTERASE” (priority 2006, published 2009).
“And” between values parts separate entries of the source, which are not always exact repeats. Equal entries are not always repeated.

Assays:
[1] = system: patients with summer diarrhea; assay: Prevention and treatment of summer diarrhea; format: in vivo; details: 0.5 mL of 200 U aqueous solution in 3 mL cold water, rinsed in mouth and swallowed, repeated after two hours
Procedure: To 0.5 mL of butyrylcholinesterase (enzyme activity 200 U) aqueous solution, 3 mL of cold water was added. A portion of the solution was placed into the mouth of a patient, and lightly rinsed for 5-10 minutes. Then, the solution was swallowed. Two hours later, the previous steps were repeated.

Kunming mice = assay: Analgesic experiment on mice by acetic acid twisting method; format: in vivo; details: for Inhibition rate (%): compared with saline solution group; for Writhing number: within 15 minutes after 0.6% acetic acid i.p.
Text: (§1) 1. Materials and Reagents
1) Reagents: acetic acid, manufactured by Guangdong Xinning Chemical Plant; butyrylcholinesterase (activity: 200 U per mL solution) prepared following the method of Example 2; Fenbid liniment (ibuprofen), produced by GlaxoSmithKline (China) Investment Co, Ltd., Product batch number: 04050471.
2) Animals: Kunming mice, 40, weight 20±2 g, of either sex.
Saline solution group (negative control group);
Experimental group 1, smeared with butyrylcholinesterase aqueous solution;
Experimental group 2, intraperitoneal injection with butyrylcholinesterase aqueous solution; and
Fenbid group (positive control group).
40 Kunming mice were randomly grouped with each group 10. The negative control group was administered 0.9% saline solution (0.1 mL/10 g) by intraperitoneal injection. An area of 1×1 cm of the hair of the mice of the experimental group 1 was cut in the back, and butyrylcholinesterase (enzyme activity: 200 U per mL solution) was smeared onto it. The experimental group 2 was administered 0.1 mL/10 g butyrylcholinesterase solution (enzyme activity: 200 U per mL solution) by intraperitoneal injection. An area of 1×1 cm of the hair of the mice of the positive control group was cut in the back, and Fenbid was smeared onto it. Each group of mice was fed in different cages. At 5 minutes after administration, following the method taught in Pharmacological Experimental Methodology (3rd Edition) (Xu Shuyun, et al., People's Health Publishing House, 2002, 1), each mouse was administered 0.6% acetic acid ([…]) by intraperitoneal injection, and the writhing number of mice within 15 minutes was recorded. The number was compared with that of saline solution group (0.9%) to calculate writhing inhibition rate in mice.

Wister rats = assay: Anti-inflammatory experiment with adjuvant arthritis rats; format: in vivo
Text: as §1
1) Reagents: butyrylcholinesterase aqueous solution (activity: 300 U per mL solution) prepared following the method of Example 2; Fenbid liniment (ibuprofen), manufactured by GlaxoSmithKline (China) Investment Co, Ltd., Product batch number: 04050471.
2) Animals: Wister rats, 30, weight 200±2 g, of either sex, from Laboratory Animal Center, Sun Yat-sen University.
Wister rats were randomly grouped into 3 groups with each group of 10. Following the method taught in Pharmacological Experimental Methodology (The third edition) (Xu Shuyun, et al., People's Health Publishing House, 2002, 1), each rat was administered 0.1 mL of Freund's adjuvant (FCA) in the right hindlimb by intradermal injection. After 0.5 h, the experimental group and Fenbid group were separately administered butylcholineterase aqueous solution and Fenbid in the inflammatory site of the right hindlimb, one time per day for a week. At 2 h, 6 h, 12 h, 24 h, 48 h, 72 h and 7 d after administration, the swelling degree of the right hindlimb of rats was separately measured by a vernier caliper.

Substance P (SP) = assay: Hydrolysis of Substance P (SP) by cholinesterase, flight mass spectrometry; format: biochemical; details: for first restriction site: SP C-terminal
Procedure: Hydrolysis of SP was performed by acetylcholinesterase and butyrylcholinesterase separately.
1) Butyrylcholinesterase, specific activity 200 U, 50 mg of dry powder was dissolved in 5 mL of aqueous solution of iron(III) (double distilled water, Fe^+3 content, 1 mg/L) and centrifuged at 10,000 r/min for 4 minutes;
2) Butyrylcholinesterase, specific activity 200 U, 50 mg of dry powder was dissolved in 5 mL of double distilled water and centrifuged at 10,000 r/min for 4 minutes;
3) Acetylcholinesterase, specific activity 300 U, 20 mg of dry powder was dissolved in 1 mL of double distilled water and centrifuged at 10,000 r/min for 4 minutes.
SP, with purity 98%, in an aqueous solution at a concentration 0.5 μg/mL.
3. Reaction 100 μL of the substrate and 100 μL of enzyme were mixed, and the initial reaction temperature was 22° C.
Flight mass spectrometry: 1 μL of matrix (CHCA) and 1 μL of the reactant were mixed, and the mixture was directly assayed by flight mass spectrometry.

[2] = system: patient who caught a cold at early stage; assay: Prevention and treatment of common cold; format: in vivo; details: 200 U glycerol solution nasal spray
Text: Acetylcholinesterase (enzyme activity 200 U) glycerol solution was sprayed to the nose of a patient who caught a cold at early stage, 3-5 times per day, one spray each time. Within an hour, symptoms such as headache and fever disappeared. Three days later, other symptoms disappeared, and overall wellbeing of the patient recovered to normal.

[3] = system: patients with swelling gingivitis and pain; assay: Prevention and treatment of gingivitis; format: in vivo; details: 300 U
Procedure: Patients suffered from swelling gingivitis and pain. Sterile cotton swab was wetted by acetylcholinesterase (enzyme activity 300 U) and placed on the affected area for 10 min, one or two times per day.

[4] = system: patients with wound caused by trauma, burn or scald; assay: Prevention and treatment of trauma and inflammation; format: in vivo; details: enzyme activity 300 U, sprayed 1-3 times directly onto wound
Text: Acetylcholinesterase (enzyme activity 300 U) was sprayed 1-3 times directly onto a wound. If necessary, gauze pretreated with acetylcholinesterase may also cover the wound. […] Pains disappeared. If the wound was not already inflamed, inflammation was not observed, the wound recovered naturally, and a week later dead skin started to fall off. If the wound was inflamed, the inflammation would not develop; three days later, the wound recovered naturally. The mentioned-above wound was a wound caused by trauma, burn or scald.

patient with tinea pedis = assay: Prevention and treatment of tinea pedis; format: in vivo
Procedure: To 2 L of warm water lower than 40° C. was added 2 mL of acetylcholinesterase aqueous solution (enzyme activity 300 U), and stirred slowly. The feet of a patient were immersed in the solution for 30 minutes, two times per day for three consecutive days.

[5] = system: patients with allergic rhinitis; assay: Prevention and treatment of allergic rhinitis; format: in vivo; details: 300 U glycerol solution nasal spray, 3-5 times per day for a week; a month later, in most patients
Text: Acetylcholinesterase (enzyme activity 300 U) glycerol solution was sprayed to the nose of a patient, 3-5 times per day, one spray each time. The course of treatment lasted a week.

[6] = intraperitoneal injection 0.1 mL/10 g, 200 U per mL

B1: Butyrylcholinesterase (protein, UniProt P06276 29-602, looked up)
Cholinesterase: EDDIIIATKNGKVRGMNLTVFGGTVTAFLGIPYAQPPLGRLRFKKPQSLTKWSDIWNATKYANSCCQNIDQSFPGFHGSEMWNPNTDLSEDCLYLNVWIPAPKPKNATVLIWIYGGGFQTGTSSLHVYDGKFLARVERVIVVSMNYRVGALGFLALPGNPEAPGNMGLFDQQLALQWVQKNIAAFGGNPKSVTLFGESAGAASVSLHLLSPGSHSLFTRAILQSGSFNAPWAVTSLYEARNRTLNLAKLTGCSRENETEIIKCLRNKDPQEILLNEAFVVPYGTPLSVNFGPTVDGDFLTDMPDILLELGQFKKTQILVGVNKDEGTAFLVYGAPGFSKDNNSIITRKEFQEGLKIFFPGVSEFGKESILFHYTDWVDDQRPENYREALGDVVGDYNFICPALEFTKKFSEWGNNAFFYYFEHRSSKLPWPEWMGVMHGYEIEFVFGLPLERRDNYTKAEEILSRSIVKRWANFAKYGNPNETQNNSTSWPVFKSTEQKYLTLNTESTRIMTKLRAQQCRFWTSFFPKVLEMTGNIDEAEWEWKAGFHRWNNYMMDWKNQFNDYTSKKESCVGL
[1]
  number of the patients with summer diarrhea: decreased greatly
Kunming mice; either by intraperitoneal injection or by skin smearing, P<0.05
  writhing number compared with the saline solution group: significantly decreased the writhing number
Kunming mice; [6]
  Inhibition rate (%): 26.6%
  Writhing number: 27.2 ± 9.50*Δ
Kunming mice; intraperitoneal injection, P<0.05
  inhibition rate on writhing compared with Fenbid: higher inhibition rate on writhing in mice than Fenbid
Kunming mice; smeared onto 1×1 cm cut area of the back
  Writhing number: 29.9 ± 5.17
Kunming mice; smeared onto the back, 200 U per mL
  Inhibition rate (%): 24.0%
Wister rats; 2 h after administration
  Swelling degree of the right hind limb of rats: 0.74 ± 0.04
Wister rats; 6 h after administration
  Swelling degree of the right hind limb of rats: 0.84 ± 0.04
Wister rats; 12 h after administration
  Swelling degree of the right hind limb of rats: 0.87 ± 0.05
Wister rats; 24 h after administration
  Swelling degree of the right hind limb of rats: 0.83 ± 0.05
Wister rats; 48 h after administration
  Swelling degree of the right hind limb of rats: 0.74 ± 0.02
Wister rats; 72 h after administration
  Swelling degree of the right hind limb of rats: 0.76 ± 0.05
Wister rats; 7 d after administration
  Swelling degree of the right hind limb of rats: 0.67 ± 0.06
Wister rats; at 48 h, 72 h and 7 d after administration, P<0.05
  swelling degree compared with the negative control group: significantly decrease the swelling degree
Substance P (SP)
  capacity of hydrolyzing SP: has the capacity of hydrolyzing SP
  first restriction site: between Leu^10 and Met^11
Substance P (SP); 60 minutes
  amount of product, with Fe^+3 (FIG. 3) compared with without Fe^+3 (FIG. 8): much more products having a molecular weight of 1104
Substance P (SP); in water without Fe^+3, FIGS. 6-9
  molecular weight of products detected: 1217 and 1104
Substance P (SP); with Fe^+3 in water, at 25 minutes
  molecular weight of product detected: 1217
Substance P (SP); with Fe^+3 in water, at 60 minutes
  molecular weight of new fragments detected: 1104 and 900

B2: Acetylcholinesterase (protein, UniProt P22303 32-614, looked up)
Acetylcholinesterase: EGREDAELLVTVRGGRLRGIRLKTPGGPVSAFLGIPFAEPPMGPRRFLPPEPKQPWSGVVDATTFQSVCYQYVDTLYPGFEGTEMWNPNRELSEDCLYLNVWTPYPRPTSPTPVLVWIYGGGFYSGASSLDVYDGRFLVQAERTVLVSMNYRVGAFGFLALPGSREAPGNVGLLDQRLALQWVQENVAAFGGDPTSVTLFGESAGAASVGMHLLSPPSRGLFHRAVLQSGAPNGPWATVGMGEARRRATQLAHLVGCPPGGTGGNDTELVACLRTRPAQVLVNHEWHVLPQESVFRFSFVPVVDGDFLSDTPEALINAGDFHGLQVLVGVVKDEGSYFLVYGAPGFSKDNESLISRAEFLAGVRVGVPQVSDLAAEAVVLHYTDWLHPEDPARLREALSDVVGDHNVVCPVAQLAGRLAAQGARVYAYVFEHRASTLSWPLWMGVPHGYEIEFIFGIPLDPSRNYTAEEKIFAQRLMRYWANFARTGDPNEPRDPKAPQWPPYTAGAQQYVSLDLRPLEVRRGLRAQACAFWNRFLPKLLSATDTLDEAERQWKAEFHRWSSYMVHWKNQFDHYSKQDRCSDL
[2]; 3-5 times per day, within an hour
  symptoms such as headache and fever: disappeared
[2]; three days later
  other symptoms: disappeared
[3]; cotton swab on affected area
  relapse and side effects: without relapse and side effects
[3]; cotton swab on affected area 10 min, one or two times per day, two days later
  inflammatory swelling: disappeared
[4]
  pains: disappeared
  wound and inflammation in patients: reduced significantly
Patient with tinea pedis; 2 mL of 300 U solution in 2 L warm water, feet immersed 30 minutes, two times per day, three days
  pain: disappeared
Patient with tinea pedis; one week later
  ringworm spot, smell and other symptoms: all gone
[5]
  symptoms such as nasal obstruction, sneezing, runny nose, nose itching: disappeared, without relapse
Substance P (SP)
  capacity of hydrolyzing SP: has the capacity of hydrolyzing SP
  first restriction site: between Leu^10 and Met^11
Substance P (SP); in water, 0-30 minutes, FIGS. 10-15
  hydrolysis of C-terminal Met^11 of SP: hydrolyzed quickly
Substance P (SP); in water, FIGS. 10-15
  SP fragment finally left: only a 1-5 peptide fragment was left
